Biological target: C1-Esterase (UniProt P09871)
Assay: cell-based or functional assay

C1-Esterase, sequence (P09871 16-688 limits assumed): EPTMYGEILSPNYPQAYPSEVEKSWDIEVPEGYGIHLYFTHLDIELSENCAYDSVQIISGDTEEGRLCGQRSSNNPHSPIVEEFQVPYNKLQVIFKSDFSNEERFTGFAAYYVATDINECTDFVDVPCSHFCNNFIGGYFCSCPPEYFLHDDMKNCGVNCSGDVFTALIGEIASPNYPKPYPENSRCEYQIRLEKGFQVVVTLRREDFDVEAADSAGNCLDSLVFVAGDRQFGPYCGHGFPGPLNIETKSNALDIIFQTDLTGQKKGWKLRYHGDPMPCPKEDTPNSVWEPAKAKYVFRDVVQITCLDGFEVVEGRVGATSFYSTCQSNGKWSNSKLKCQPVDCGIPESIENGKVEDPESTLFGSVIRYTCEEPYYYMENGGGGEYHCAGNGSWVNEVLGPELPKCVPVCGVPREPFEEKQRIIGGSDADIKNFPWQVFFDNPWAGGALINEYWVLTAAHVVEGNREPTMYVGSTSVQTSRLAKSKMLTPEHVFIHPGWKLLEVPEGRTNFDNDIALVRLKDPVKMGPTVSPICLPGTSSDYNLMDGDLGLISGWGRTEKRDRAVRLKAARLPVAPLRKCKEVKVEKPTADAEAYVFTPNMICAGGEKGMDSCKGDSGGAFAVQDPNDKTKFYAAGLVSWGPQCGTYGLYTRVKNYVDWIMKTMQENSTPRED

Row | in vitro C1 inhibitory activity | in vitro C1 inhibitory activity, percent of native C1 inhibitor | Substance
1 | 6.1 U/mg | 86% | Mal-PEG-C1 INH (C1 esterase inhibitor PEGylated with 40 kDa maleimide mPEG) (from UniProt P05155 23-500)
2 | 3.3 U/mg | 47% | Mal-U-PEG-C1 INH (C1 inhibitor PEGylated with branched 40k mPEG-maleimide) (from UniProt P05155 23-500)
